The values that follow come from patent US20100035945A1, “SMALL MOLECULE INHIBITORS OF BACTERIAL DAM DNA METHYLTRANSFERASES” (priority 2004, published 2010).

Data set [1] concerns the target EcoDam K9A K9A (Escherichia coli) (UniProt P0AEE8). Description: SPR. The following applies: data not shown.
Data set [2] has as its target EcoDam R124A R124A (Escherichia coli) (UniProt P0AEE8). Description: SPR. On the technique in general: Surface plasmon resonance follows binding to a sensor surface in real time, without labels.
For data set [3], the target named is T1, EcoDam DNA adenine methyltransferase (Escherichia coli, UniProt P0AEE8 SEQ:1-274). As to conditions: 2-aminopurine replacing orphan Thy; AdoHcy, Thy flipping.
The next data set deals with 3T3 cells. As to conditions: 20 μM compound. As to the method: (§1) To determine whether formation of actin pedestals by EPEC could be used to screen for drugs which inhibit virulence, we tested each of the 82 compounds. 3T3 cells were plated in 96 well optical dishes. In this “proof of principle” experiment, each of the 82 compounds was added to a well at 20 μM, and cells were infected with EPEC for 6 hrs. The optical density (OD600) of the supernatant was assessed to estimate effects on bacterial growth, and the cells were fixed and stained with DAPI to recognize bacteria (and cell nuclei), and FITC-phalloidin to recognize filamentous actin. Inhibition of actin pedestals is readily identifiable as the loss of intense actin staining (Kalman et al., 1999; Swimm et al., 2004a). The plate was then scanned visually on an inverted Zeiss 200M fluorescence microscope with a 20× objective. All the wells on the dish were examined with 5 minutes (a high throughput format). At low power, actin pedestals are seen as intense fluorescence apposed to groups of bacteria (see FIG. 31B, arrow).

In the next data set the target is Dam (Escherichia coli, UniProt P0AEE8). The following applies: compound concentration 200 μM; preliminary results, microplate assay.
The subject of data set [4] is EPEC. In kind it is cell-based, enteropathogenic E. coli (EPEC). The following applies: 20 μM compound, 3T3 cells infected with EPEC for 6 hrs, FITC-phalloidin/DAPI.
From the text: Cell and animal models for pathogenic E. coli infection: Enteropathogenic E. coli (EPEC), which is closely related to enterohemorrhagic E. coli O157:H7 (EHEC), and the closely related mouse pathogen Citrobacter rodentium all cause attaching and effacing (A/E) lesions, characterized by flattening of intestinal microvilli, adherence of the bacteria to epithelial cells, and reorganization of the host actin cytoskeleton, which result in the formation of an actin-filled membrane protrusion or “pedestal” beneath each bacterium (Goosney et al., 2000; Knutton et al., 1989). Pedestal formation is readily detected on cultured fibroblasts (see FIG. 30) exposed to EPEC, and then stained with antibodies that recognized outer membrane proteins in the bacterium (green in FIG. 30) or DAPI, which recognizes bacterial and cellular DNA (blue in FIG. 30), together with phalloidin to recognize actin (red in […]). Pedestals are seen as intense actin staining directly opposed to the bacterium.
as §1

For data set [5], the system named is EPEC. Description: bacterial growth by OD600 of supernatant / growth curves. In kind it is cell-based, enteropathogenic E. coli (EPEC). The following applies: 20 μM compound, listed as G6. As to the method:
as §1

The target of data set [6] is T2, T4Dam DNA adenine methyltransferase (Enterobacteria phage T4, UniProt P04392 SEQ:1-259). Kind of data set: structure; sinefungin; PDB 1YFL; full site with flipped Ade.
Data set [7] deals with T1, EcoDam DNA adenine methyltransferase. Description: structure; AdoHcy cognate complex 1.89 A; also sinefungin non-canonical joint complex 1.99 A. The following applies: tags: His tag. How it is done: His Tag-EcoDam is expressed in HMS174(DE3) cells and purified using Ni²⁺-affinity, UnoS, and S75 Sepharose sizing columns. A 0.5-liter induced culture yields approximately 7 mg purified His Tag-EcoDam. In the last purification step and during concentration, cofactor analog AdoHcy or sinefungin is added is added to the protein at approximately 2:1 molar ratio. Concentrated binary complexes are mixed with oligonucleotide duplex (synthesized by New England Biolabs, Inc) at a protein to DNA ratio of about 2:1 and allowed to stand on ice for at least two hours before crystallization. Final protein concentration for crystallization is about 15 mg/mL. In hanging drop crystallization trials with AdoHcy, the ternary complex crystals appeared under low salt conditions of 100 mM KCl, 10 mM MgSO₄, 5-15% PEG400, and 100 mM buffer (MES or HEPES) pH 6.6-7.4 (the cognate crystal form in Table 4).
Structural determination of the cognate ternary complex proceeded by molecular replacement with the program REPLACE (Tong and Rossmann, 1997) using protein coordinates of a DpnM monomer structure (PDB 2DPM) (Tran et al., 1998). […] Structure of the non-cognate ternary complex was determined using a protein monomer from the refined cognate complex structure as a search model.

For data set [8], the target named is T2, T4Dam DNA adenine methyltransferase. Description: structure; AdoHcy; nonspecific mode, not at GATC; 3.1 A.
The target is the same in data set [9]. Kind of data set: structure; AdoHcy; PDB 1YF3; nonspecific and 1/4-site. The following applies: one-base 5' overhangs.

“Also recorded” adds a separate entry of the source. Like-named read-outs stand apart in the source and are kept apart here.

SPR GATC oligonucleotide duplex returned a binding signal (% of wild type binding) in [1] of 70. The binding signal (fold reduction vs wild type) in [2] turned out to be 10. Consider GATC with 2AP at orphan Thy, for which the binding signal (fold fluorescence increase) in data set [3] amounted to 6. For `O=C1Oc2ccccc2C(=O)/C1=C/Nc1nc(-c2ccc(O)c(O)c2)cs1` [Compound 78], the “gross cytopathological effects on 3T3 cells” value in the data set on 3T3 cells was “no gross cytopathological effects”. The Factor of inhibition on Dam was 5. Also, the figures for the actin pedestal formation entry in the data set with EPEC [4], with EPEC [4] (listed as G6) and in the data set on EPEC [4] (listed as NCI 659390) were “inhibit actin pedestal formation”, “appeared to inhibit actin pedestals; also recorded: No actin pedestals are observed” and “inhibit actin pedestal formation”, respectively. For the same molecule, in the data set on EPEC [5], the “effect on bacterial growth (OD600)” value is listed as “did not affect bacterial growth; also recorded: no effect on bacterial growth”.

B1: 16-mer duplex (dsDNA)
DNA 1: TCACAGGATCCTGTGA
DNA 2: TCACAGGATCCTGTGA
Turning to B1, the binding result in data set [6] is listed as “binds”.

B2: EcoDam 12-mer (dsDNA)
DNA 1: TCTAGATCTAGA
DNA 2: TCTAGATCTAGA
Consider B2, for which the binding result in data set [7] is given as “binds”.

B3: 12-mer duplex I (dsDNA)
DNA 1: ACAGGATCCTGT
DNA 2: ACAGGATCCTGT
B3: the binding result in data set [8] was “binds”.

B4: 13-mer duplex II (dsDNA)
DNA 1: TGTCAGATCATGG
DNA 2: ACCATGATCTGAC
B4: in data set [9], the binding result was “binds”.
